Measured values taken from PMC4680927.

Tests used:
[1] = molecular target: N-acetyltransferase C-terminal region (CTR) of RmNag (Rhizomucor miehei); test: not stated; NTR and CTR 'in solution'; the sentence names no method (it follows the SEC estimate for the full-length protein)
[2] = molecular target: full-length β-N-acetylglucosaminidase from Rhizomucor miehei (RmNag) (Rhizomucor miehei); test: SEC; size-exclusion chromatography of full-length RmNag; native molecular mass approx. 230 kDa; data not shown

“N-acetyltransferase C-terminal region (CTR) of RmNag (domain or fragment)” gave a stoichiometry N [1] of 2.
“full-length β-N-acetylglucosaminidase from Rhizomucor miehei (RmNag) (enzyme)” gave a stoichiometry N [2] of 2.
